# Assay results published in publication PMC7802950, “Characteristics and expression patterns of six α-galactosidases in cucumber (Cucumis sativus L.)” (PLoS ONE, 2021).
# B1: CsAGA1 (Cucumis sativus) (protein)
# chain: MTVGAGITISDANLTVLGNRVLSDVHNNITLTAAPGGGVMNGAFIGVQSDQIGSRRVFPIGKLIGLRFLCAFRFKLWWMTQRMGCSGQEIPFETQFLVVETRDGSNIAGNGEEGDAVYTVFLPILEGDFRAVLQGNDNNELEICLESGDPSVDGFEGSHLVFVGAGSDPFETITYAVKSVEKHLQTFAHRERKKMPDILNWFGWCTWDAFYTDVTSDGVKKGLESFENGGIPPKFVIIDDGWQSVAKDAASTDCKADNTANFANRLTHIKENYKFQKDGKEGERIENPALGLQHIVSYMKEKHATKYVYVWHAITGYWGGVSSGVKEMEQYESKIAYPVASPGVESNEPCDALNSISKTGLGLVNPEKVFNFYNEQHSYLASAGVDGVKVDVQNILETLGAGHGGRVKLARKYHQALEASISRNFQDNGIISCMSHNTDGLYSSKRNAVIRASDDFWPRDPASHTIHIASVAYNSLFLGEFMQPDWDMFHSLHPMAEYHGAARAVGGCAIYVSDKPGQHDFNLLKKLVLHDGSILRAKLPGRPTKDCLFADPARDGKSLLKIWNMNDLSGVVGVFNCQGAGWCKVGKKNLIHDENPDTITGVIRAKDVSYLWKIAGESWTGDAVIFSHLAGEVVYLPQDASMPITLKSREFDVFTVVPVKELANDIKFAPIGLMKMFNSGGAVKEMNHQPGSSNVSLKVRGSGPFGAYSSSKPKRVAVDSEEVEFIYDEGGLITIDLKVPEKELYLWDIRIEL
# notes: coding region in pAcHLT, baculovirus/Sf9 insect cells; 6xHis tag removed by thrombin
# B2: CsAGA2 (Cucumis sativus) (protein)
# chain: MTVTPKITVNDGNLVVHGKTILTGVPDNIVLTPGSGLGLVAGAFIGATASNSKSLHVFPVGVLEGTRFLCCFRFKLWWMTQRMGTSGRDIPFETQFLLMESQGNDGEDPDNSSTIYTVFLPLLEGQFRAALQGNEKNEMEICLESGDNTVETNQGLSLVYMHAGTNPFEVITQAVKAVEKHTQTFLHREKKKLPSFLDWFGWCTWDAFYTDVTAEGVVEGLQSLSDGGAPPKFLIIDDGWQQIEAKPKDADCVVQEGAQFASRLSGIKENHKFQKNGNNYDQVPGLKVVVDDAKKQHKVKFVYAWHALAGYWGGVKPASPGMEHYDSALAYPVQSPGMLGNQPDIVVDSLAVHGIGLVHPKKVFNFYNELHSYLASCGIDGVKVDVQNIIETLGAGHGGRVTLTRSYHQALEASIARNFSDNGCIACMCHNTDSLYSAKQTAVVRASDDYYPRDPASHTIHISSVAYNSLFLGEFMQPDWDMFHSLHPTAEYHGAARAIGGCAIYVSDKPGNHNFDLLKKLVLPDGSVLRAQLPGRPTRDSLFNDPARDGTSLLKIWNMNKCSGVVGVFNCQGAGWCRITKKTRIHDESPGTLTTSVRAADVDAISQVAGADWKGDTIVYAYRSGDLTRLPKGASVPVTLKVLEYDLFHISPLKDITSNISFAPIGLVDMFNIGGAVEQVDIQVVEPIPEFDGEVASELTCSLPDDRPPTATITMKARGCGRFGLYSSQRPLKCSVDKVGTDFVYDDVTGLVTFEIPIPTEEMYRWNIEIEV
# notes: as for B1
# B3: CsAGA3 (Cucumis sativus) (protein)
# chain: MTIKPAVRISDGKLIVKDRTILTGVPDNVIATSGSSSGPVEGVFLGAVFEEEQSRQVVSLGTLRDVRFMACFRFKLWWMAQKMGDKGKEIPLETQFLLLETKDGSHLESDDGNEENQIIYTVFLPLIEGSFRACLQGNGQDELELCLESGDVDTKASSFTHSLFIHAGTDPFDAISDAMKAVKLHLNTFRLRHEKKFPAIVDYFGWCTWDAFYHEVTQDGVEAGLESLTAGGVPPKFVIIDDGWQSVGGDPQEEKEEGDEKQPKQPPLLRLTAIRENSKFQKKEDPTEGIKNIVNIAKNKYGLKYVYVWHAITGYWGGVRTGVKDMEEYGSSMQYPKVSKGVFENEPIWKNDALALQGLGLMNPKNVYKFYNELHSYLASAGIDGVKVDAQSILETLGAGLGGRVELTRQYHQALDASVARNFPDNGIIACMSHHTDAVYCAKQTAVVRASDDFYPRDPVSHTIHIAAVAYNTVFLGEIMVPDWDMFHSLHSAAEYHASARAISGGPVYVSDAPGKHNFELLRKLVLPDGSVLRATLPGRPTRDCLFSDPARDGVSLLKIWNLNKFTGVIGIYNCQGAAWNSQERKNTFHDTNSDAITGYVKGRDVHAISKVAADPDWNGDCAFYRHLSGDLVTLPYNSALPVSLKVLEFDIFTISPIKVLAPGFSFAPIGLIDMYNSGGAIEGLKYEVKGGAKLVEVDGASEGIETASERVENRSSELVAIVHLEVKGCGRFGAYSSAKPRQCIVDSSVVEFGYDSESGLLTLGIDKLPEGDLKYHDVKIEL
# notes: as for B1
# Substrate: O=[N+]([O-])c1ccc(O[C@H]2O[C@H](CO)[C@H](O)[C@H](O)[C@H]2O)cc1
# Assay: purified protein
# Conditions: pH and temperature of Km assay not stated
row,Protein,Km [mM]
1,B1,1.81 ± 0.39
2,B2,2.21 ± 0.28
3,B3,1.24 ± 0.17

# Substrate: OC[C@H]1O[C@H](OC[C@H]2O[C@H](OC[C@H]3O[C@H](O[C@]4(CO)O[C@H](CO)[C@@H](O)[C@@H]4O)[C@H](O)[C@@H](O)[C@@H]3O)[C@H](O)[C@@H](O)[C@H]2O)[C@H](O)[C@@H](O)[C@H]1O
# Assay: Lineweaver-Burk plot, hydrolysis
# Assay type: biochemical, Cucumis sativus
# Conditions: pH and temperature of Km assay not stated
row,Protein,Km [mM]
1,B1,3.76 ± 0.89
2,B2,5.23 ± 1.23
3,B3,3.26 ± 0.76

# Substrate: OC[C@H]1O[C@H](OC[C@H]2O[C@H](O[C@]3(CO)O[C@H](CO)[C@@H](O)[C@@H]3O)[C@H](O)[C@@H](O)[C@@H]2O)[C@H](O)[C@@H](O)[C@H]1O
# Assay: Lineweaver-Burk plot, hydrolysis
# Assay type: biochemical, Cucumis sativus
# Conditions: pH and temperature of Km assay not stated
row,Protein,Km [mM]
1,B1,2.08 ± 0.51
2,B2,30.4 ± 2.85
3,B3,22.47 ± 1.87
